Broadly, the stoichiometry N is the number of molecules, sites or subunits per partner or assembly.

The text below walks through data of publication doi:10.1101/2025.09.05.674548.

The experiment has as its target T.ni-cell expression optimized human P2X4 construct (P2X4^T.ni) (human) (UniProt Q99571).

In turn, “T.ni-cell expression optimized human P2X4 construct (P2X4^T.ni) (from UniProt Q99571-1 1-388) (receptor)” came in with a stoichiometry N of 3.
